The supplement of paper PMC9170038

Tested on: K4 kissing-loop RNA reporter
Assay: apparent KD of K4 kissing-loop reporter; higher = weaker reporter binding
Details: Eterna round: R107
Experimental: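 RNA-MaP round R107: designed RNA switches with theophylline, tryptophan, arginine or FMN aptamers are transcribed on-chip within common flanks. They are titrated with a labelled K4 kissing-loop RNA reporter in RNA-MaP buffer (100 mM Tris pH 7.5, 80 mM KCl, 4 mM MgCl2), without ligand or with the indicated ligand. Median apparent KD per design.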

[1] = input ligand: theophylline 20 uM
[2] = input ligand: tryptophan 2.4 mM
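Further: bound reporter read as fluorescence of individual clusters on recovered sequencing chips by microscopy, with normalized cluster intensities fitted with a binding model.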

Sequence	apparent KD of K4 kissing-loop reporter (input ligand: FMN 200 uM) [nM]	apparent KD of K4 kissing-loop reporter (input ligand: arginine 13.2 mM) [nM]	apparent KD of K4 kissing-loop reporter (input ligand: none) [nM]	apparent KD of K4 kissing-loop reporter [1] [nM]	apparent KD of K4 kissing-loop reporter [2] [nM]
UGAUACCAGACGGCCGCCACUCCCGUAAGUCAAAGACUUACCAAGAGAAUCGUCCAGUGAUGUUGGAGGACCGGGUCUGGUAUCU [FiskerMod 8 - Jieux - Exclusion - Tryptophan B]	922	845	998	732	682
CCCAAAAUAUGCAGUGAUGUUGCAACUGAUACCAGUAUCGAAAGAUACCCUUGGCAGCGGAAAACCGCUACGUAAUUUAAAAGGG [Ex Theophylline A K4 18]	200	292	255	340	187
CCUAUCUCAUACGAUACCAGUCCGAGUGAUGUUCGAAAAUAAAUAAAUUUGCCAUAUAAUGACCCUUGGCAGCGUAUGGGAUAGG [Ex Theophylline B K4 11]	354	296	351	400	300
UUUUUAAUCGCAGAUACCAGUCCAGAAUAAAUACUAUAGUGAUGUUAUAUAUAAGGAAAGGACCCUUGGCAGCUGUACUAUAUUU [AstrosSsTheB#8]	411	322	392	245	346
CCCAAGGGCGAACCGGUAUGAUCGACGGAUACCAGAGGCGAAAGCCUCCCUUGGCAGCCGGCUGUAGUGAUGUUACACUGGUUCU	139	98.9	168	186	143
UGUCAUUGGUCGGCCGCCACUUCAUGUAGAGUGAUGUUCUGUAAGACGGAUCGAAAGAUCUGUCGAAGGACCGGGACCGAUGACU [FiskerMod 13 - Jieux - Same State - Tryptophan B]	1090	303	855	868	326
UGUACCGAGUUAGGAUAUGUCGUCGAAAGACGAAAUGGAGUGAUGUUCCUUAAACUGCGAAAGCAGACAGAAGGAACUUGGUACU [FmnBS 29 U11+A75]	190	627	544	546	476
GUGCGGUGGAGGCUACCGCUACUCUGAGAAGGAGCGCAGAAGACUGCAGGUAGGUCGCUUAGAGCUUGCAGUGAUGUUGCAAGUU [KL-SSArg-A18]	134	135	183	156	176
UAAGAGGACCACUGCAAGAGUCCUCGAAUACGAGGACCGGUACGGCCGCCACUCGAUAAUUUGCAGUGAUGUUGCAAGUAAGAAU [BrourdMod 5 - Jieux - Same State Tryptophan A]	115	167	130	177	54.4
AGACUACUGAUAGGAUAUAACAUACUACUCGUAUACCGAAAGGUAUACGAGACCCUUCUAGUGAUGUUAGAAGGGUCGGUAGUCA [Omei KL FMN B Exc B v8]	87.5	70.1	68.1	68.6	74.7
UAAUCCUAGUGAUAAUAAUCAAGUGGUGGACGAGGACCGGUACGGCCGCCACUCGAAAAUGCAGUGAUGUUGUAAUCCGGAUAAU [Exclusion - Tryptophan A (Freestyle 4)]	627	701	878	771	581
GGAUCCACCAGUGAUGUUGGAGAAAACUCUAAGGAUAUGACGAAAGUCAGAAGGUAGUAGACUGGACAAAGUCCGGUCGGAUCCA [FmnA 23 U30+A56]	583	376	1190	661	484
AGUGAUGUGGGAAGGAGCGCUAGUACACUUCAGUGAUGUUGAAGUGAUGAAUUAGUGUAUUGGCAGGUAGGUCGCCUAGAUGUUA [KL-XARG-B14]	97.4	59.1	82.9	65.4	72.5
UGACUGGACUGAAGGAGCGAGGACGGUCAUAGACCGAAUUCAGUGAUGUUGAAAAUAAAACCUCAGGUAGGUCGCAGUCUAGUCU [ArgBS 3 #SwitchBubble #StaticStem]	228	193	219	216	204
UGUCAUUGGUCGGCCGCCACUAGGACCGGGAUUUUUCUAGUGAUGUUAGUUUGGUCGGCCGCCACUAGGACCGGGACCGAUGACU [KL-SSTryp-B13 #DoubleAptamer]	638	345	644	453	86.8
GGCAGUGAUGUUGCCAGUGGCAGAUUGGAAGGAGCGUGGUGAGACACAGGUAGGUCGCUAAUUGAAGUUGCUGUCACUAGAAUGC [whbob_Ex_Arginine_A_2t132]	214	280	293	335	231
AGGAGCGUGGGAUGGAAAUCGCACGCUCCUCGAGGACCGGUACGGCCGCCACUCGCUCGCGCCGAGUGAUGUUCGGCCGGCGAAG [#2 Same State - Tryptophan A Attempt #15 (HarryS)]	579	194	128	129	226
AGGGUUUAGGACGAUACCAGCCUGGAGGCCAGUGAUGUUGGCCGAUUUGAACAGAAUUAAGGCCCUUGGCAGCGUAUCUAAAACC [Esamaza]	280	291	320	161	259
GUUAUAUAAAUAAGAAAUAAAAUAAGGGAAGGAGCGCCGAGAAAGGCAGGUAGGUCGCCCAGUGAUGUUGGGAUUAAUUAAUUAG	45	33.7	39.3	43.9	37.1
AGUGAUAUAUGAGGAUAUGGGUUAAUUAGUGAGUGAUUUUUAGUGUUGUUUGAUUAGUGAUGUUAUUUAGAAGGCGUGAGUGAUG [mvvmjmullin]	123	106	81.9	144	79.4
UGCUUUAUCAGAAGGAGCGCGUUGGUCAUAAUAAUAAUCAGUGAUGUUGAUAUAUGAGGAUUGCAGGUAGGUCGCUGAUAUAGCU [KL-XARG-B1]	323	210	390	255	229
AAAUAGAUCAGUCAACCAGUGAUGUUGGAAGGAGCGUGCGAAAGCACAGGUAGGUCGCCAGAAUAAAAGUGGCUGAUCAAAAUAA	357	384	374	508	214

Sequence	apparent KD of K4 kissing-loop reporter (input ligand: FMN 200 uM) [nM]	apparent KD of K4 kissing-loop reporter (input ligand: arginine 13.2 mM) [nM]	apparent KD of K4 kissing-loop reporter (input ligand: none) [nM]	apparent KD of K4 kissing-loop reporter [1] [nM]	apparent KD of K4 kissing-loop reporter [2] [nM]
AUUUUAUUAACUGAUACCAGACUUAAUGAAUUGUAAAUUACUAGUGAUGUUAGUGAUUCUGUCCCUUGGCAGCAGUAUUUAUUAA [JR_ExcTheophyB_Sub012]	129	146	139	141	118
AUUUUUUUGUCAGGAUAUUAGUGUUGGUUUGGUUUGUUAGUGAUGUUGAUAUUUGUUUUAUGUAUUUAAGAAGGGAUUUAGCGGU [wxooemullin]	420	379	364	458	293
UGAGUUUGAGUGAUGUUCAGGCAUUGGUACGAGGAUAUCGAGGAGUUGAGAAGGCGUACUGCUCAACUUUGUAUGAAUACAUACA [FMN A Ex t2b]	259	73.4	106	117	103
UGGACCAAGGAGUGAUGUUCCAUAUGUGAUACCAGCCACGAAAGUGGCCCUUGGCAGCACUGCCAGGACGAAAACGUCCGGUCCU [#SwitchBubble 13 #StaticStem #K4Early]	390	346	503	477	321
UCGUCUGUGUGAGGAUAUCCAAGCGAGCUGCGUAAAGGCGCGGCGUUUGGAGUGAUGUUCCAGGCAGGAGAAGGCGCACGGGCUU [Maleisar]	231	296	245	470	292
GGAGGAGAAUAUGAUACCAGCAGAGAGAGAGAGGAAGUAUAGUGAUGUUAUAUGAGAGAAUGCCCUUGGCAGCAUAAGAAGAAGG [SSTheophylB.A]	150	105	136	123	105
UUCGAAAGUCGAAGGAGCGCUGGCGGUCAUAGACUAUAUCUGUAGUGAUGUUACAGAUUCCAGCAGGUAGGUCGCGACAGAGACA [Arg B SS t18b]	124	88.4	107	89.8	108
CUCGUGGGUUUGAGAGGGCUUGUGGGAAGUGAGGAUAUUUAGGGAGAAAGAAGGCACUAUAGAAUAUAGUGAUGUUAUAUAAGGG [SSFMNA.N]	314	95.7	200	273	212
UUCAGUGAUGAUGAACACUGUUGUAUAAACUAGGAUAUGCUGAUAAGCAGAAGGAGUGAUGUUCCGUUCAUCAUCAGAAUUAAAU [KL-XFMN-A4]	619	378	371	407	255
GGAGGGAUCUCGGCCGCCACUCAUAAGAAAUGAACCUCAGAAAUAUAGUGAUGUUAUAUAAAGAAGAGGACCGGGAGAAAGGAGG [ExTryptoB.B]	167	137	161	158	168
UAGUGUCGCGCAGGAUAUACUGAUUGGAGUGAUGUUCCAAACAUGAACGUGAGACUUUUACAAGAAGUAGAAGGGCGUGAGACAU [Exclusion FMN B GF 21]	276	320	405	393	404
GCCGUAGAUUGAAGGAGCGGCACCCACGGCUCUAACACCUAAGUGAUGUUUAGGUAGUGGUGCCAGGUAGGUCGCAAUCUACGGC	144	153	124	133	131
GUGCGGCUAGUGAUGUUGGUUGUGUGGGAAGGAGCGCAGAUACAUGCAGGUAGGUCGCCCACACCUCUGAAAGGAGGCUAAUUCA [KL-SSArg-A15]	418	330	411	325	350
GUCAGACCGGGACUCCAGUGAUGUUGGAGGCAGGAUAUCCAGUCGAGGAGAAGGGCCAGGGAUAUCGAGCUGCUCGGUUUGUAGU [Xexezaes]	72.4	108	77.3	102	67.4
ACGUCAUCAAAAGGAUAUGCAUCGAAGUGAUGUUUCGUCAUAUCAGUCUGAUUGCAGCAAUUAGGAGCAGAAGGUUUAGUCCGGU [theeternabot_exclusion_KL_FMN_B_11]	91.6	80.7	91.9	77.6	83.1
UAAUUUAUGUCUUUAAUAUAAUAAUCAGAUACCAGUGAUUAAUGACACCCUUGGCAGCUGUAUAGAGUGAUGUUCUUAUGCUUAA [JR_ExcTheophyA_Sub010]	245	316	288	364	179
CCGCCGGUCGGAAGGAGCGCACGCCAGAGUGAUGUUCUGGCGCGGGCACUUUAUGCCCGCGUGCAGGUAGGUCGCCGAUUCUGGC [Mabema]	464	426	445	446	417
AGAAGAUAUCGUGAUACCAGACCGCGGAGAGGCCGGAAGAGGGUAGUGAUGUUGCAUGCAGUCCCUUGGCAGCACUGACAGUAUU [theeternabot_sameState_KL_Theo_B_40]	754	287	694	539	601
UGUCAUUGGUCUGAUACCAGUUGAUGACGAAUACGUCAACUGGAGUGAUGUUCCUAAAACAACCCUUGGCAGCAGACCGAUGACU [TheoBS 1 #SwitchBubble #StaticStem]	788	511	658	709	564
GUAGGAUGAGGAGGAGGAAGAAAUACUGAAGGAGCGCAAAGAAAUGCAGGUAGGUCGCGGUAAAGAAGUAUAGUGAUGUUAUAUA [SSArgA.C]	452	450	406	411	373
UUUAUUAAGACGGCCGCCACUGAUUCAGAGUGAUGUUCUGAUAUUUUUUUAUAUAAUAAUAACAGCAGGACCGGGUCAAUUAUUA [JR_SSTryptoB_Sub013]	225	237	233	272	192
